Test results reported in article PMC6009593 (Nucleic Acids Research, 2018).

B1: PIP-like Mre11 peptide (PfuMre11 412–424) (peptide)
peptide: Ac-KKKRGTLDSWLGG-NH2
B2: Pyrococcus furiosus Proliferating Cell Nuclear Antigen (PfuPCNA) (natural protein)
chain: MPFEIVFEGAKEFAQLIDTASKLIDEAAFKVTEDGISMRAMDPSRVVLIDLNLPSSIFSKYEVVEPETIGVNMDHLKKILKRGKAKDTLILKKGEENFLEITIQGTATRTFRVPLIDVEEMEVDLPELPFTAKVVVLGEVLKDAVKDASLVSDSIKFIARENEFIMKAEGETQEVEIKLTLEDEGLLDIEVQEETKSAYGVSYLSDMVKGLGKADEVTIKFGNEMPMQMEYYIRDEGRLTFLLAPRVEE

What was measured:
[1] = molecular target: B2; assay: SPR
[2] = molecular target: Pyrococcus furiosus Mre11–Rad50 complex, wild type, full length (PfuMR wt) (Pyrococcus furiosus, UniProt Q8U1N9 1-426; P58301 1-882); assay: SPR
Pyrococcus furiosus Mre11–Rad50 complex, wild type, full length (PfuMR wt), sequence (P58301 whole entry, one chain of several): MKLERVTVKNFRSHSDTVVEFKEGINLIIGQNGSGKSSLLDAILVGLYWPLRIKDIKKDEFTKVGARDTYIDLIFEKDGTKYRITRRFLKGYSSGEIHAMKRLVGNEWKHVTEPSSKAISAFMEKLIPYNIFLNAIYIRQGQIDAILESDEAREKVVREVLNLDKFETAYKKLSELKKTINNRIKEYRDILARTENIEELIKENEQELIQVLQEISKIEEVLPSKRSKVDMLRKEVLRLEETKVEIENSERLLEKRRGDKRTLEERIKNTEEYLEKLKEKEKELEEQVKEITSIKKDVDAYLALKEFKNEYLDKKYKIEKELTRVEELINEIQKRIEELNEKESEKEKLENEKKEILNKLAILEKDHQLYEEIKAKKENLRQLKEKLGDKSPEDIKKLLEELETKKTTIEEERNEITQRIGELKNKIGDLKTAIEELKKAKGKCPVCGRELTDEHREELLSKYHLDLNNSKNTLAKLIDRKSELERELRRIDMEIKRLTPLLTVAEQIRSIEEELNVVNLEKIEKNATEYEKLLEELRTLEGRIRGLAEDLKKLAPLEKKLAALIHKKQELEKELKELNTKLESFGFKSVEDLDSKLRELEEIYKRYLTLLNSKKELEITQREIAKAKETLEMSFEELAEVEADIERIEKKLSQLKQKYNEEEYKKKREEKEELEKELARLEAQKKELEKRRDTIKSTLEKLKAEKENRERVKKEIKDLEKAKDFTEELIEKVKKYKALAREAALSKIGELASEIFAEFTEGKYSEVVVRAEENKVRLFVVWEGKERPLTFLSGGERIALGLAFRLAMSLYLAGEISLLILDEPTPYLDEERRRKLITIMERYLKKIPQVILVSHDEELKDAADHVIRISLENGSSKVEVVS

Binder | Kd [1] [nM] | Kd [2] [nM]
B1 | 4050 | 
B2 |  | ~4.07
